Test results published in the nanobody polyreactivity screen of Harvey et al. (2022).

Experiment: yeast display, Sf9 membrane polyspecificity reagent, FACS + sequencing; frameworks hold sequencing errors
In short: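 Synthetic nanobody libraries on Saccharomyces cerevisiae BJ5465 were galactose-induced for 36–48 hours, stained 1 hour at 4 °C with 10% biotinylated, detergent-solubilized Sf9 membrane reagent and enriched on streptavidin microbeads. FACS then separated cells into low and high (top ~1%) gates by anti-HA (expression) and streptavidin (reagent binding) fluorescence. Genes were colony-PCR amplified, MiSeq 2 × 250 sequenced and CDR-length filtered. A clone's polyreactivity label is that of its gate of origin.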

Row | Sequence | polyreactivity (PSR sort gate)
1 | QVQLVESGGGLVQAGGSLRLSCAASGFTFSSYAMGGYRQAPGKERELVAAISSNGRTYYADSVKGRFTISRDNAKNTVYLQMNSQKREDTAVYYCARNIPVSYYRYGYWGQGTQVTVSS | high polyreactivity
2 | QVQLVESGGGLVQAGGSLRLSCAASGFTFSSYAMGWSRQAPGKERELVAAITISGGRTYYADSVKGRFTISRDNAKNTVYLQMNSLIPEDTAVYYCAAVGRLARRDYWGQGTQVTVSS | high polyreactivity
3 | QVQLVESGGGLVQAGGSLRLSCAASGFTFSSYAMGWYRQAPGKERELVAAITGGGSRTYYADSVKGRFTISRDNAKNTVYLQMYSLKPEDTAVYYCAKGLSTGRAYRGYDYWGQGTQVTVSS | high polyreactivity
4 | QVQLVESGGGLVQAGGSLRLSCAASGFTFSSYAMGWYRQAPGKERELVAAITQSGGRTYYADSVKGRFTISRDNAKNTVYLQMNSLKPEDTAVYYCAADVPLWYDYGGQGTQVTVSS | low polyreactivity
5 | QVQLVESGGGLVQAGGSLRLSCAASGFTFSTNAMAWYRQAPGKERELVAAITSSGGSTYYADSVKGRFTISRDNAKNTVYLQMNSLKPEDTAVYYCATGPSQVGGDYWGQGTQVTVSS | high polyreactivity
6 | QVQLVESGGGLVQAGGSLRLSCAASGFTFSTNAMGWYRQAPGKERELVAAISKSGVSTYYADSVKGRFTISRDNAKNTVYLQMNSLKTEDTAVYYCAADPKIALYKVWRYDYWGQGTQVTVSS | high polyreactivity
7 | QVQLVESGGGLVQAGGSLRLSCAASGFTFSTYAMGWYRQAPGKERELVAAISRSGGSTYYADSVKGRFTISRDNAKNTVYLQMNSLKPEDTAVYYCAADGLRRESSYYYWGQGTQVTVSS | high polyreactivity
8 | QVQLVESGGGLVQAGGSLRLSCAASGFTFSTYAMGWYRQAPGKESELVAVISGGDSTSYADSVKGRFTISRDNAKNTVYLQMNSLKPEDTAVYYCAADRYGGYYGDTYYTGLFNYWGQGTQVTVSS | high polyreactivity
9 | QVQLVESGGGLVQAGGSLRLSCAASGFTFSVYAMGWYRQAPGKERELVAVITKRGGSTYYADSVKGRFTISRDNAKNTVYLQMNSLKPEDTAVYYCNAYLQGKIFPYGYWGQGTQVTVSS | high polyreactivity
10 | QVQLVESGGGLVQAGGSLRLSCAASGFTFSVYVMGWYRQAPGKERELVAAISSGGDTTYADSVKGRFTISRDNAKNTVYLQMNSLKPEDTAVYYCAAYRVILYYLYDYWGQGTQVTVSS | low polyreactivity
11 | QVQLVESGGGLVQAGGSLRLSCAASGFTFSWNTMGWYRQAPGKERELVATISGSGGRTYYADSVKGRFTISRDKAKNTVYLQLNSLKPEDTAVYYCAKRRASRYYWGQGTQVTVSS | high polyreactivity
12 | QVQLVESGGGLVQAGGSLRLSCAASGFTFSWNVMGWYRQAPGKERELVAAISTSYGGTYYADSVKGRFTISRDNAKNTVYLQMNSLKPEDTAVYYCATLYYPNTSYEYYYWGQGTQVTVSS | low polyreactivity
13 | QVQLVESGGGLVQAGGSLRLSCAASGFTFSWYAMGWSRQAPGKERELVAGISYSGTRTFYADSVKGRFTISRDNAKNTVYLQMNSLTPEDTAVYYCAAVVPGRTVLQPEYDYWGQGTQVTVSS | low polyreactivity
14 | QVQLVESGGGLVQAGGSLRLSCAASGFTFSWYAMGWYRQAPGKERELVAAINADGGTTYYADSVKGRFTISRDNAKNTVYLQMNSLKPEDTAVYYCAVPYPYGYEYDHWGQGTQVTVSS | low polyreactivity
15 | QVQLVESGGGLVQAGGSLRLSCAASGFTFSWYAMGWYRQAPGKERELVAAITRSGGSTNYADSVKGRFTISRDNAKNTVYLQMNSLKPEDTAVYYCNAAGYRRSTWWYDYWGQGTQVTVSS | high polyreactivity
16 | QVQLVESGGGLVQAGGSLRLSCAASGFTFSYNAMGWYRQAPGKERELVAAISSGGRTHYADSVKGRFTISRDNAKNTVYLQMNILKPEDTAVYYCNAQKYPRYSRTSGRNYNYWGQGTQVTVSS | high polyreactivity
17 | QVQLVESGGGLVQAGGSLRLSCAASGFTFSYYAMGWYRQAPGKERELVAAISWSGGSTYSADSVKGRFTISRDNAKNTVYLQMNSLKPEDTAVYYCAAEVYFLATGTWYDYWGQGTQVTVSS | high polyreactivity
18 | QVQLVESGGGLVQAGGSLRLSCAASGFTFSYYAMGWYRQAPGKERELVAAITSGGSTYYADSVKGRFTISRDNAKNTVYLQMNSLKPEDTAVYYCNARGYGTLNVRRERMDYWGQGTQVTVSS | high polyreactivity
19 | QVQLVESGGGLVQAGGSLRLSCAASGFTFSYYDMGWYRQAPGKERELVAAISSSASRTYYADSVKGRFTISRDNAKNTVYLQMNSLKPEDTAVYYCAARYSESRTGHLDYWGQGTQVTVSS | high polyreactivity
20 | QVQLVESGGGLVQAGGSLRLSCAASGFTFSYYGMGWNIQAPRKERELVPALTRSGTNTYYADSVKGRFTISRDNAKNTVYLQMKSLKPEDTAVFYCNADVAWSGYHDWYWSSEDYWGQGTQVTVSS | low polyreactivity
21 | QVQLVESGGGLVQAGGSLRLSCAASGFTFTDYAMGWYRQAPGKERELVAAISGIGGSTYYADSVKGRFTISRDNAKNTVYLQMNSLKPEDTAVYYCAAELTKWRFWGLHDSWGQGTQVTVSS | high polyreactivity
22 | QVQLVESGGGLVQAGGSLRLSCAASGFTFTDYAMGWYRRAPGKESELVAAISSGGSTNYADSVKGRFTISRDNAKNTVYLQMNSLKPEDTAVYYCAAYYVYRAPVRYEYWGQGTQVTVSS | high polyreactivity

Row | Sequence | polyreactivity (PSR sort gate)
23 | QVQLVESGGGLVQAGGSLRLSCAASGFTFTDYTMGWYRQAPGKEREFVAAISYRGSNTYYADSVKGRFTISRDNAKNTVYLQMNSLKPEDTAVYYCAADSYRYKYNYWGQGTQVTVSS | high polyreactivity
24 | QVQLVESGGGLVQAGGSLRLSCAASGFTFTGNAMVWYRQAPGKERELVAAIRGSGGSTYYADSVKGRFTISRDNAKNTVNLQMKSLKPDVTAVYYCATYYIRNKGFDYWGQGTQVTVSS | high polyreactivity
25 | QVQLVESGGGLVQAGGSLRLSCAASGFTFTGYAMGWYRQAPGKERELVAAISHDGGSTYYADSVKGRFTISRDNAKNTVYLQMNSLKPEDTAVYYCAAAFRAAGRTVRYYWGQGTQVTVSS | high polyreactivity
26 | QVQLVESGGGLVQAGGSLRLSCAASGFTFTGYAMGWYRQAPGKERELVAALTRGGGSTYYADSVKGRFTISRDNAKNTVYLQMNSLKPEDTAVYYCAAQRSRLIRISSPYYGHDYWGQGTQVTVSS | low polyreactivity
27 | QVQLVESGGGLVQAGGSLRLSCAASGFTFTLYAMGWYRQAPGKERELVAAISWNGSTYYADSVKGRFTISRDNAKNTVYLQMNSLKPEDTAVYYCNADVWISYNNAYVTLDYWGQGTQVTVSS | high polyreactivity
28 | QVQLVESGGGLVQAGGSLRLSCAASGFTFTPNAMGWYRQAPGKERELVAAITWNGGTTYYADSVKGRFTISRDNAKNTVYLQMNSLKPEDTAVYYCNADGLILYDYWGQGTQVTVSS | low polyreactivity
29 | QVQLVESGGGLVQAGGSLRLSCAASGFTFTRYAMGRYRQAPGKERELGATITKRGGSTYYADSVKGRFTISRDNAKNTVYLQLNSLKPEDTAVYFCAARNVRTYVTGVDYDYWGQGTQVTVSS | high polyreactivity
30 | QVQLVESGGGLVQAGGSLRLSCAASGFTFTRYAMGWYRQAPGKERELVAAISRIGGSTYYADSVKGRFTISRDNAKNTVYLQMNSLKPEDTAVYYCAAYKVPSYDYWGQGTQVTVSS | high polyreactivity
31 | QVQLVESGGGLVQAGGSLRLSCAASGFTFTSYAMGWYRQAPGKERELVAAINRSGGSTTYADSEKGRFTISRDNAKNTVYLQMNSLKPEDTAVYYCAKAFRGHYWGQGTQVTVSS | high polyreactivity
32 | QVQLVESGGGLVQAGGSLRLSCAASGFTFTSYTMGWYRQAPGKERELVAGISTNGGTTYYADSVKGRFTISRDNAKNTVYLQMNSLKPEDTAVYYCNAKRKYGRFPKKYYYWGQGTQVTVSS | high polyreactivity
33 | QVQLVESGGGLVQAGGSLRLSCAASGFTFTVYAMGWYRQAPGQERELVATISRSAGRTYYADSVKGRFTISRDNAKNTVYLQMNSLKPEDTPVYYCNAAYGNGYTGGFDNWGQGTQVTVSS | high polyreactivity
34 | QVQLVESGGGLVQAGGSLRLSCAASGFTFTWYAMGWYRQAPGKERELVATISRSGGRTYYADSVKGRFTISRDNAKNTVYLQLNSLKPEDTAVYYCAADTRNYPRYDYWGQGTQVTVSS | high polyreactivity
35 | QVQLVESGGGLVQAGGSLRLSCAASGFTFTYYAMGWYRQAPGKERELVAAISSSGGRTYYADSVKGRFTISRDNAKNTVYLQMNSLKPEDTAVYYCAARSVSATPDFHYWGQGTQVTVSS | high polyreactivity
36 | QVQLVESGGGLVQAGGSLRLSCAASGFTFVINDMGWYRQAPGTERELVADITSGGDTYYADSVKGRFTISRDNAKNTDYLQLNSLKPEDTAVYYCAADIYPDWIYLLYGYWGQGTQVTVSS | low polyreactivity
37 | QVQLVESGGGLVQAGGSLRLSCAASGFTFVKNAMGWYRQAPGKERELVAAITGSAGRTYYADSVKGRFTISRANAKNTVYLQMNSLKPEDTAVYYCNVYYGYFRSRYGYWGQGTQVTVSS | high polyreactivity
38 | QVQLVESGGGLVQAGGSLRLSCAASGFTFVNYAMGWYRQAPGKERELVAAIRRSGSRTYYADSVKGRFTISRDNAKNTVYLQINSLKPEDTAVYYCGAVCYRLYGYWGQGTQVTVSS | low polyreactivity
39 | QVQLVESGGGLVQAGGSLRLSCAASGFTFVNYAMGWYRQAPWKERELVAAIRRSGSRTYYADSVKGRFTISRDIAKNTVYLQMNCLNPEDTAVYYCAAVWYRLYGYWGQGTQVTVSS | low polyreactivity
40 | QVQLVESGGGLVQAGGSLRLSCAASGFTFVPYAMGWYRQAPGKERETNADSVKGRFTISRDNAKNTVYLQMNSLKPEDTAVYYCAAGGYGPYDYWGQGTQVTVSS | low polyreactivity
41 | QVQLVESGGGLVQAGGSLRLSCAASGFTFVRNTMGWYRQAPGKERELVAAISRSGGSTYYADSVKGRFTISRDNAKNTVYLQMYSLKPEDTAVYYCNAYRYVHYDWGQGSQVTVSS | high polyreactivity
42 | QVQLVESGGGLVQAGGSLRLSCAASGFTFVRNTMGWYRQATGKERELVAAISRSGGSTYYADSVKGRFTISRDNAKNTVYFKIYSLKPEDSAVYYCNAYRYVHYDWGHGTQVTVSS | high polyreactivity
43 | QVQLVESGGGLVQAGGSLRLSCAASGFTFVRNTMGWYRQPPGKETELVAAINRSGGNTYYADSVKGRFTISRDNAKNTVYLQMNCLKPEDTAVYYCAADGFGRRDYYYWGQGTQVTVSS | high polyreactivity
